Experiments:
Test in all cases: native gel or EMSA
[1] = target: H3K18Cub nucleosome core particle (UniProt P68431)
[2] = target: H3K18CubK23Cub nucleosome core particle (UniProt P68431)
[3] = target: H3K23Cub nucleosome core particle (UniProt P68431)
[4] = target: unmodified nucleosome core particle (recombinant H3, H2A, H2B, H4 octamer on He601 DNA) (UniProt P68431)

Kd [1]: 116 nM | percent of NCP shifted at 250 nM mDNMT1 [1]: 70% | Kd [2]: 13 nM | Kd [3]: 136 nM | percent of NCP shifted at 250 nM mDNMT1 [3]: 70% | Kd [4]: 193 nM
Substance: N-terminal truncated mouse DNMT1 (residues 291–1620) (from UniProt P13864 291-1620) (enzyme)
